Results reported in the supplement of paper PMC9112550, “Optimization of the antimicrobial peptide Bac7 by deep mutational scanning” (BMC Biology, 2022).

Each sequence was assayed on Escherichia coli TOP10 (assay: shrunken log2 fold change of peptide-encoding DNA abundance (4.5 h post-induction vs induction); higher = less antimicrobial activity (less host growth inhibition)). Conditions: time post-induction: 4.5 h; library: site-saturation at positions 5, 18, 19, 20.
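Note: peptides expressed intracellularly from a pBAD plasmid library in pooled LB shake-flask culture, induced with 0.3% L-arabinose, DNA abundance read by NGS, three biological replicates, DESeq2 with apeglm shrinkage.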

Question: How did the “shrunken log2 fold change” value turn out when RRIRHRPPRLPRPRPRPFVHPRP was run?
Answer: -0.836

Question: Which “shrunken log2 fold change” value does the source give for RRIRMRPPRLPRPRPRPNKGPRP here?
Answer: 0.0758

Question: For RRIRLRPPRLPRPRPRPHSNPRP, which “shrunken log2 fold change” value is on record?
Answer: -0.443

Question: How did the “shrunken log2 fold change” value turn out when RRIRQRPPRLPRPRPRPCCFPRP was run?
Answer: 0.0639

Question: With RRIRYRPPRLPRPRPRPQCCPRP as the sequence, how does the “shrunken log2 fold change” value read?
Answer: -0.18

Question: RRIRKRPPRLPRPRPRPPNTPRP was tested. Which “shrunken log2 fold change” value did it give?
Answer: 0.408

Question: Which “shrunken log2 fold change” value does the source give for RRIRMRPPRLPRPRPRPNIIPRP here?
Answer: 0.23

Question: For RRIRHRPPRLPRPRPRPHFLPRP, which “shrunken log2 fold change” value is on record?
Answer: -0.0519

Question: Which “shrunken log2 fold change” value does the source give for RRIRTRPPRLPRPRPRPQGAPRP here?
Answer: -0.0215

Question: How did the “shrunken log2 fold change” value turn out when RRIRKRPPRLPRPRPRPTYWPRP was run?
Answer: 0.141

Question: Which “shrunken log2 fold change” value does the source give for RRIRNRPPRLPRPRPRPNCKPRP here?
Answer: -0.424

Question: For RRIRARPPRLPRPRPRPLTMPRP, which “shrunken log2 fold change” value is on record?
Answer: 0.637

Question: RRIRDRPPRLPRPRPRPMKDPRP was tested. Which “shrunken log2 fold change” value did it give?
Answer: -0.0395

Question: For RRIRIRPPRLPRPRPRPCQRPRP, which “shrunken log2 fold change” value is on record?
Answer: -0.268

Question: With RRIRQRPPRLPRPRPRPRCMPRP as the sequence, how does the “shrunken log2 fold change” value read?
Answer: -0.164

Question: How did the “shrunken log2 fold change” value turn out when RRIRQRPPRLPRPRPRPTGMPRP was run?
Answer: 0.475

Question: For RRIRNRPPRLPRPRPRPWPKPRP, which “shrunken log2 fold change” value is on record?
Answer: 0.0323

Question: Which “shrunken log2 fold change” value does the source give for RRIRLRPPRLPRPRPRPKCEPRP here?
Answer: 0.0288

Question: RRIRARPPRLPRPRPRPNLKPRP was tested. Which “shrunken log2 fold change” value did it give?
Answer: 0.164

Question: With RRIRMRPPRLPRPRPRPIYFPRP as the sequence, how does the “shrunken log2 fold change” value read?
Answer: -0.141

Question: With RRIRYRPPRLPRPRPRPPHFPRP as the sequence, how does the “shrunken log2 fold change” value read?
Answer: -0.139

Question: Which “shrunken log2 fold change” value does the source give for RRIRNRPPRLPRPRPRPGRSPRP here?
Answer: 0.17

Question: With RRIRERPPRLPRPRPRPMRMPRP as the sequence, how does the “shrunken log2 fold change” value read?
Answer: -0.0542

Question: With RRIRWRPPRLPRPRPRPAFRPRP as the sequence, how does the “shrunken log2 fold change” value read?
Answer: -0.015

Question: How did the “shrunken log2 fold change” value turn out when RRIRMRPPRLPRPRPRPFWKPRP was run?
Answer: 0.072

Question: How did the “shrunken log2 fold change” value turn out when RRIRRRPPRLPRPRPRPYILPRP was run?
Answer: 0.366

Question: RRIRKRPPRLPRPRPRPMYIPRP was tested. Which “shrunken log2 fold change” value did it give?
Answer: -0.0457

Question: How did the “shrunken log2 fold change” value turn out when RRIRLRPPRLPRPRPRPFPKPRP was run?
Answer: -0.103

Question: RRIRDRPPRLPRPRPRPVDEPRP was tested. Which “shrunken log2 fold change” value did it give?
Answer: -0.023

Question: For RRIRIRPPRLPRPRPRPIAVPRP, which “shrunken log2 fold change” value is on record?
Answer: -0.0939

Question: How did the “shrunken log2 fold change” value turn out when RRIRERPPRLPRPRPRPQGCPRP was run?
Answer: -0.0179

Question: RRIRPRPPRLPRPRPRPPCLPRP was tested. Which “shrunken log2 fold change” value did it give?
Answer: -0.153

Question: How did the “shrunken log2 fold change” value turn out when RRIRHRPPRLPRPRPRPVWFPRP was run?
Answer: 0.0927

Question: For RRIRVRPPRLPRPRPRPGSCPRP, which “shrunken log2 fold change” value is on record?
Answer: 0.216

Question: RRIRVRPPRLPRPRPRPSQHPRP was tested. Which “shrunken log2 fold change” value did it give?
Answer: -0.39

Question: RRIRHRPPRLPRPRPRPPIMPRP was tested. Which “shrunken log2 fold change” value did it give?
Answer: -0.285

Question: How did the “shrunken log2 fold change” value turn out when RRIRWRPPRLPRPRPRPITQPRP was run?
Answer: -0.0367

Question: How did the “shrunken log2 fold change” value turn out when RRIRIRPPRLPRPRPRPQGMPRP was run?
Answer: -0.501

Question: With RRIRRRPPRLPRPRPRPKYWPRP as the sequence, how does the “shrunken log2 fold change” value read?
Answer: 0.00676

Question: Which “shrunken log2 fold change” value does the source give for RRIRQRPPRLPRPRPRPGYTPRP here?
Answer: -0.912

Question: Which “shrunken log2 fold change” value does the source give for RRIRKRPPRLPRPRPRPSLKPRP here?
Answer: -0.0893

Question: RRIRCRPPRLPRPRPRPISRPRP was tested. Which “shrunken log2 fold change” value did it give?
Answer: -0.503

Question: How did the “shrunken log2 fold change” value turn out when RRIRVRPPRLPRPRPRPKRDPRP was run?
Answer: 0.292

Question: RRIRPRPPRLPRPRPRPQIFPRP was tested. Which “shrunken log2 fold change” value did it give?
Answer: -0.137

Question: Which “shrunken log2 fold change” value does the source give for RRIRKRPPRLPRPRPRPREIPRP here?
Answer: 0.736

Question: For RRIRHRPPRLPRPRPRPKGCPRP, which “shrunken log2 fold change” value is on record?
Answer: 0.031

Question: Which “shrunken log2 fold change” value does the source give for RRIRRRPPRLPRPRPRPEYIPRP here?
Answer: -0.199

Question: With RRIRQRPPRLPRPRPRPWVMPRP as the sequence, how does the “shrunken log2 fold change” value read?
Answer: -0.0363

Question: With RRIRMRPPRLPRPRPRPVHAPRP as the sequence, how does the “shrunken log2 fold change” value read?
Answer: 1.18

Question: For RRIRQRPPRLPRPRPRPPVPPRP, which “shrunken log2 fold change” value is on record?
Answer: 0.197

Question: With RRIRFRPPRLPRPRPRPALIPRP as the sequence, how does the “shrunken log2 fold change” value read?
Answer: -0.00983

Question: With RRIRFRPPRLPRPRPRPTHAPRP as the sequence, how does the “shrunken log2 fold change” value read?
Answer: 0.207

Question: How did the “shrunken log2 fold change” value turn out when RRIRWRPPRLPRPRPRPAFCPRP was run?
Answer: 0.143

Question: How did the “shrunken log2 fold change” value turn out when RRIRMRPPRLPRPRPRPYAAPRP was run?
Answer: 0.364

Question: Which “shrunken log2 fold change” value does the source give for RRIRFRPPRLPRPRPRPDAEPRP here?
Answer: 0.373

Question: RRIRPRPPRLPRPRPRPRNMPRP was tested. Which “shrunken log2 fold change” value did it give?
Answer: -0.126

Question: For RRIRLRPPRLPRPRPRPTWRPRP, which “shrunken log2 fold change” value is on record?
Answer: 0.337

Question: Which “shrunken log2 fold change” value does the source give for RRIRTRPPRLPRPRPRPTRRPRP here?
Answer: 0.71

Question: How did the “shrunken log2 fold change” value turn out when RRIRIRPPRLPRPRPRPKKCPRP was run?
Answer: -0.0871

Question: How did the “shrunken log2 fold change” value turn out when RRIRRRPPRLPRPRPRPCYVPRP was run?
Answer: -0.583

Question: RRIRARPPRLPRPRPRPGFGPRP was tested. Which “shrunken log2 fold change” value did it give?
Answer: 0.667

Question: For RRIRRRPPRLPRPRPRPTFMPRP, which “shrunken log2 fold change” value is on record?
Answer: 0.284

Question: Which “shrunken log2 fold change” value does the source give for RRIRKRPPRLPRPRPRPAAVPRP here?
Answer: 0.188

Question: RRIRERPPRLPRPRPRPWCYPRP was tested. Which “shrunken log2 fold change” value did it give?
Answer: -0.947

Question: With RRIRRRPPRLPRPRPRPCADPRP as the sequence, how does the “shrunken log2 fold change” value read?
Answer: 0.0637

Question: RRIRLRPPRLPRPRPRPHAMPRP was tested. Which “shrunken log2 fold change” value did it give?
Answer: -0.0654

Question: How did the “shrunken log2 fold change” value turn out when RRIRGRPPRLPRPRPRPLTWPRP was run?
Answer: 0.462

Question: With RRIRERPPRLPRPRPRPRVRPRP as the sequence, how does the “shrunken log2 fold change” value read?
Answer: 0.211

Question: With RRIRLRPPRLPRPRPRPKVDPRP as the sequence, how does the “shrunken log2 fold change” value read?
Answer: -0.00247

Question: How did the “shrunken log2 fold change” value turn out when RRIRVRPPRLPRPRPRPAPQPRP was run?
Answer: 0.618

Question: Which “shrunken log2 fold change” value does the source give for RRIRDRPPRLPRPRPRPWMVPRP here?
Answer: 0.333

Question: Which “shrunken log2 fold change” value does the source give for RRIRTRPPRLPRPRPRPCGPPRP here?
Answer: -0.0329

Question: For RRIRTRPPRLPRPRPRPRNNPRP, which “shrunken log2 fold change” value is on record?
Answer: -0.803

Question: Which “shrunken log2 fold change” value does the source give for RRIRTRPPRLPRPRPRPDQFPRP here?
Answer: -0.00188

Question: With RRIRIRPPRLPRPRPRPSMPPRP as the sequence, how does the “shrunken log2 fold change” value read?
Answer: -0.339
